The labels stand for the following.
B1: EH domain-containing protein 3 (Homo sapiens), Q9NZN3 (parent)
chain: MFSWLGTDDRRRKDPEVFQTVSEGLKKLYKSKLLPLEEHYRFHEFHSPALEDADFDNKPMVLLVGQYSTGKTTFIRYLLEQDFPGMRIGPEPTTDSFIAVMQGDMEGIIPGNALVVDPKKPFRKLNAFGNAFLNRFVCAQLPNPVLESISVIDTPGILSGEKQRISRGYDFAAVLEWFAERVDRIILLFDAHKLDISDEFSEVIKALKNHEDKMRVVLNKADQIETQQLMRVYGALMWSLGKIVNTPEVIRVYIGSFWSHPLLIPDNRKLFEAEEQDLFRDIQSLPRNAALRKLNDLIKRARLAKVHAYIISSLKKEMPSVFGKDNKKKELVNNLAEIYGRIEREHQISPGDFPNLKRMQDQLQAQDFSKFQPLKSKLLEVVDDMLAHDIAQLMVLVRQEESQRPIQMVKGGAFEGTLHGPFGHGYGEGAGEGIDDAEWVVARDKPMYDEIFYTLSPVDGKITGANAKKEMVRSKLPNSVLGKIWKLADIDKDGMLDDDEFALANHLIKVKLEGHELPNELPAHLLPPSKRKVAE
partner: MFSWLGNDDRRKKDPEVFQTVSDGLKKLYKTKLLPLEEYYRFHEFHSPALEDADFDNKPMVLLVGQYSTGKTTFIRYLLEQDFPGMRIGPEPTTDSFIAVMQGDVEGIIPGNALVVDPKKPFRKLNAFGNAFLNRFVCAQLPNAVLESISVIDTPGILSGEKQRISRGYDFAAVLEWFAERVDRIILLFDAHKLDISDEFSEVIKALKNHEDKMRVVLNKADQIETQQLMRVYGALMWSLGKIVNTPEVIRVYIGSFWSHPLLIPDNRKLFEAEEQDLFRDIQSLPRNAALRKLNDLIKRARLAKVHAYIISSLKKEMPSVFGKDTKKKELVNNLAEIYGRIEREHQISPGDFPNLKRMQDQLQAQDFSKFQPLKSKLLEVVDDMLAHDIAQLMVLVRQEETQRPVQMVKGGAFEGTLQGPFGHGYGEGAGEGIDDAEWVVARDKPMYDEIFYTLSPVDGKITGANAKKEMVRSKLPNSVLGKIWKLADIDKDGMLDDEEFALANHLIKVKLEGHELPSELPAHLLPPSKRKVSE
B2: EH domain-containing protein 3 (Mus musculus), Q9QXY6 (parent)
chain: B1 partner
partner: B1 chain

This is an account of results in IntAct's records for PubMed 26226295.

The first assay covers variants of B1. Conditions: with ehd3_mouse Ehd3, Q9QXY6.
Take MFSWLGTDDRRRKDPEVFQTVSEGLKKLYKSKLLPLEEHYRFHEFHSPALEDADFDNKPMVLLVGQYSTGKTTFIRYLLEQDFPGMRIGPEPTTDSFIAVMQGDMEGIIPGNALVVDPKKPFRKLNAFGNAFLNRFVCAQLPNPVLESISVIDTPGILSGEKQRISRGYDFAAVLEWFAERVDRIILLFDAHKLDISDEFSEVIKALKNHEDKMRVVLNKADQIETQQLMRVYGALMWSLGKIVNTPEVIRVYIGSFWSHPLLIPDNRKLFEAEEQDLFRDIQSLPRNAALRKLNDLIKRARLAKVHAYIISSLRKEMPSVFGKDNKKKELVNNLAEIYGRIEREHQISPGDFPNLKRMQDQLQAQDFSKFQPLKSKLLEVVDDMLAHDIAQLMVLVRQEESQRPIQMVKGGAFEGTLHGPFGHGYGEGAGEGIDDAEWVVARDKPMYDEIFYTLSPVDGKITGANAKKEMVRSKLPNSVLGKIWKLADIDKDGMLDDDEFALANHLIKVKLEGHELPNELPAHLLPPSKRKVAE [K315R]: the “effect of a mutation on the interaction” value is recorded as “with no effect”.

Variants of B1 are the subject of another assay. Conditions: with ehd3_mouse Ehd3, Q9QXY6. The source holds these as a separate data set.
Take MFSWLGTDDRRRKDPEVFQTVSEGLKKLYKSKLLPLEEHYRFHEFHSPALEDADFDNKPMVLLVGQYSTGKTTFIRYLLEQDFPGMRIGPEPTTDSFIAVMQGDMEGIIPGNALVVDPKKPFRKLNAFGNAFLNRFVCAQLPNPVLESISVIDTPGILSGEKQRISRGYDFAAVLEWFAERVDRIILLFDAHKLDISDEFSEVIKALKNHEDKMRVVLNKADQIETQQLMRVYGALMWSLGKIVNTPEVIRVYIGSFWSHPLLIPDNRKLFEAEEQDLFRDIQSLPRNAALRKLNDLIKRARLAKVHAYIISSLRKEMPSVFGKDNKKKELVNNLAEIYGRIEREHQISPGDFPNLKRMQDQLQAQDFSKFQPLKSKLLEVVDDMLAHDIAQLMVLVRQEESQRPIQMVKGGAFEGTLHGPFGHGYGEGAGEGIDDAEWVVARDKPMYDEIFYTLSPVDGKITGANAKKEMVRSKLPNSVLGKIWKLADIDKDGMLDDDEFALANHLIKVRLEGHELPNELPAHLLPPSKRKVAE [K315R;K511R]: the “effect of a mutation on the interaction” value is reported as “with no effect”.

Variants of B1 are the subject of another assay. As to conditions: with ehd3_mouse Ehd3, Q9QXY6. This is another data set of the same source.
Take MFSWLGTDDRRRKDPEVFQTVSEGLKKLYKSKLLPLEEHYRFHEFHSPALEDADFDNKPMVLLVGQYSTGKTTFIRYLLEQDFPGMRIGPEPTTDSFIAVMQGDMEGIIPGNALVVDPKKPFRKLNAFGNAFLNRFVCAQLPNPVLESISVIDTPGILSGEKQRISRGYDFAAVLEWFAERVDRIILLFDAHKLDISDEFSEVIKALKNHEDKMRVVLNKADQIETQQLMRVYGALMWSLGKIVNTPEVIRVYIGSFWSHPLLIPDNRKLFEAEEQDLFRDIQSLPRNAALRKLNDLIKRARLAKVHAYIISSLKKEMPSVFGKDNKKKELVNNLAEIYGRIEREHQISPGDFPNLKRMQDQLQAQDFSKFQPLKSKLLEVVDDMLAHDIAQLMVLVRQEESQRPIQMVKGGAFEGTLHGPFGHGYGEGAGEGIDDAEWVVARDKPMYDEIFYTLSPVDGKITGANAKKEMVRSKLPNSVLGKIWKLADIDKDGMLDDDEFALANHLIKVRLEGHELPNELPAHLLPPSKRKVAE [K511R]: the “effect of a mutation on the interaction” value was “with no effect”.

Variants of B2 are the subject of the next assay. As to conditions: with ehd3_human EHD3, Q9NZN3.
On to MFSWLGNDDRRKKDPEVFQTVSDGLKKLYKTKLLPLEEYYRFHEFHSPALEDADFDNKPMVLLVGQYSTGKTTFIRYLLEQDFPGMRIGPEPTTDSFIAVMQGDVEGIIPGNALVVDPKKPFRKLNAFGNAFLNRFVCAQLPNAVLESISVIDTPGILSGEKQRISRGYDFAAVLEWFAERVDRIILLFDAHKLDISDEFSEVIKALKNHEDKMRVVLNKADQIETQQLMRVYGALMWSLGKIVNTPEVIRVYIGSFWSHPLLIPDNRKLFEAEEQDLFRDIQSLPRNAALRKLNDLIKRARLAKVHAYIISSLRKEMPSVFGKDTKKKELVNNLAEIYGRIEREHQISPGDFPNLKRMQDQLQAQDFSKFQPLKSKLLEVVDDMLAHDIAQLMVLVRQEETQRPVQMVKGGAFEGTLQGPFGHGYGEGAGEGIDDAEWVVARDKPMYDEIFYTLSPVDGKITGANAKKEMVRSKLPNSVLGKIWKLADIDKDGMLDDEEFALANHLIKVRLEGHELPSELPAHLLPPSKRKVSE [K315R;K511R], for which the “effect of a mutation on the interaction” value is given as “with no effect”.

The variants in a further assay derive from B2. As to conditions: with ehd3_human EHD3, Q9NZN3. This is another data set of the same source.
For the variant MFSWLGNDDRRKKDPEVFQTVSDGLKKLYKTKLLPLEEYYRFHEFHSPALEDADFDNKPMVLLVGQYSTGKTTFIRYLLEQDFPGMRIGPEPTTDSFIAVMQGDVEGIIPGNALVVDPKKPFRKLNAFGNAFLNRFVCAQLPNAVLESISVIDTPGILSGEKQRISRGYDFAAVLEWFAERVDRIILLFDAHKLDISDEFSEVIKALKNHEDKMRVVLNKADQIETQQLMRVYGALMWSLGKIVNTPEVIRVYIGSFWSHPLLIPDNRKLFEAEEQDLFRDIQSLPRNAALRKLNDLIKRARLAKVHAYIISSLRKEMPSVFGKDTKKKELVNNLAEIYGRIEREHQISPGDFPNLKRMQDQLQAQDFSKFQPLKSKLLEVVDDMLAHDIAQLMVLVRQEETQRPVQMVKGGAFEGTLQGPFGHGYGEGAGEGIDDAEWVVARDKPMYDEIFYTLSPVDGKITGANAKKEMVRSKLPNSVLGKIWKLADIDKDGMLDDEEFALANHLIKVRLEGHELPSELPAHLLPPSKRKVSE [K315R;K511R], the “effect of a mutation on the interaction” value is “decreasing interaction”.
On the same count and under the same terms, the entry for MFSWLGNDDRRKKDPEVFQTVSDGLKKLYKTKLLPLEEYYRFHEFHSPALEDADFDNKPMVLLVGQYSTGKTTFIRYLLEQDFPGMRIGPEPTTDSFIAVMQGDVEGIIPGNALVVDPKKPFRKLNAFGNAFLNRFVCAQLPNAVLESISVIDTPGILSGEKQRISRGYDFAAVLEWFAERVDRIILLFDAHKLDISDEFSEVIKALKNHEDKMRVVLNKADQIETQQLMRVYGALMWSLGKIVNTPEVIRVYIGSFWSHPLLIPDNRKLFEAEEQDLFRDIQSLPRNAALRKLNDLIKRARLAKVHAYIISSLKKEMPSVFGKDTKKKELVNNLAEIYGRIEREHQISPGDFPNLKRMQDQLQAQDFSKFQPLKSKLLEVVDDMLAHDIAQLMVLVRQEETQRPVQMVKGGAFEGTLQGPFGHGYGEGAGEGIDDAEWVVARDKPMYDEIFYTLSPVDGKITGANAKKEMVRSKLPNSVLGKIWKLADIDKDGMLDDEEFALANHLIKVRLEGHELPSELPAHLLPPSKRKVSE [K511R] is “decreasing interaction”.
